Experimental data as given in patent publication US20230235029A1 (INTEGRATED BIOTHERAPEUTICS, published 2023).

Biological target: T1, Marburg virus Musoke GP on rVSV pseudotype (VSV-MARV Musoke GP) (Marburg virus, Musoke strain, UniProt P35253 19-681)
T1 sequence: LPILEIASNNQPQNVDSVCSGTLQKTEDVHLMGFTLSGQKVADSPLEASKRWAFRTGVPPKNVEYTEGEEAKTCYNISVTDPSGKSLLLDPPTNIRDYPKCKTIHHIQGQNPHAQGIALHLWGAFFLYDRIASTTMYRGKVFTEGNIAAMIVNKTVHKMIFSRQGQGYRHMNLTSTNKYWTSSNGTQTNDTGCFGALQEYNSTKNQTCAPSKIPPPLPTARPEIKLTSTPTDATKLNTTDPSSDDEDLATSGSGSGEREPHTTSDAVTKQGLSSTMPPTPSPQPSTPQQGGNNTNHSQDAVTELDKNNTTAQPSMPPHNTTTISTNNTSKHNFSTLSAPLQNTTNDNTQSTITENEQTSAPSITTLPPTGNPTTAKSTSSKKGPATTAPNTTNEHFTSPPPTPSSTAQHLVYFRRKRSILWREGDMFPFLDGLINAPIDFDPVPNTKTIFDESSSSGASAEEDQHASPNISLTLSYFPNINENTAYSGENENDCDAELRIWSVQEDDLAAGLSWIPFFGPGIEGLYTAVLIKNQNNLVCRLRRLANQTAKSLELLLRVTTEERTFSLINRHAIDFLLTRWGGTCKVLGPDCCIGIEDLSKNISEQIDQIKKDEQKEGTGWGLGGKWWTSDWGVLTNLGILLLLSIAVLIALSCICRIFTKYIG
Test: cell-based or functional assay

B1: R217 (antibody, V domains shown)
VH: QVQLQESGPGLVKPSETLSLTCAVSGASISSNWWNWIRQPPGRGLEWLGEIYGYSGSTSYNPYLKSRVTISKDASRNQISLKLNAVTAADTAVYYCARDPLNQDAFDFWGQGLRVTVSS
VL: QSALTQPPSVSGSPGQSVTISCTGTSSDIGGYDYVSWYQHHPGKAPKLMIYDVNERPAGVSDRFSGSKSGNTASLTISGLQAEDEADYFCSSYAGRKTLLFGGGTRLTVL
  EC50 (read off the curve): ~0.3 µg/mL
